In the assay the target is GFP-GABAB1b. Kind of assay: FRET or BRET; two-photon FLIM; GFP donor, t-dimer DsRed acceptor; transfected rat spinal neurons in culture, fixed; treated with baclofen (10^-9 to 10^-3 M) or GABA (10^-4 M), with exogenous fibulin-2 protein (25 or 50 nM), co-transfected fibulin-2 or anti-fibulin-2 siRNA; mean FRET efficiency ± ….

This is an account of results in publication PMC7378325.

B1: DsRed-GABAB2 (receptor)
chain: WTRGAPRPPPSSPPLSIMGLMPLTKEVAKGSIGRGVLPAVELAIEQIRNESLLRPYFLDLRLYDTECDNAKGLKAFYDAIKYGPNHLMVFGGVCPSVTSIIAESLQGWNLVQLSFAATTPVLADKKKYPYFFRTVPSDNAVNPAILKLLKHFRWRRVGTLTQDVQRFSEVRNDLTGVLYGEDIEISDTESFSNDPCTSVKKLKGNDVRIILGQFDQNMAAKVFCCAFEESMFGSKYQWIIPGWYEPAWWEQVHVEANSSRCLRRSLLAAMEGYIGVDFEPLSSKQIKTISGKTPQQFEREYNSKRSGVGPSKFHGYAYDGIWVIAKTLQRAMETLHASSRHQRIQDFNYTDHTLGKIILNAMNETNFFGVTGQVVFRNGERMGTIKFTQFQDSREVKVGEYNAVADTLEIINDTIRFQGSEPPKDKTIILEQLRKISLPLYSILSALTILGMIMASAFLFFNIKNRNQKLIKMSSPYMNNLIILGGMLSYASIFLFGLDGSFVSEKTFETLCTVRTWILTVGYTTAFGAMFAKTWRVHAIFKNVKMKKKIIKDQKLLVIVGGMLLIDLCILICWQAVDPLRRTVERYSMEPDPAGRDISIRPLLEHCENTHMTIWLGIVYAYKGLLMLFGCFLAWETRNVSIPALNDSKYIGMSVYNVGIMCIIGAAVSFLTRDQPNVQFCIVALVIIFCSTITLCLVFVPKLITLRTNPDAATQNRRFQFTQNQKKEDSKTSTSVTSVNQASTSRLEGLQSENHRLRMKITELDKDLEEVTMQLQDTPEKTTYIKQNHYQELNDILSLGNFTESTDGGKAILKNHLDQNPQLQWNTTEPSRTCKDPIEDINSPEHIQRRLSLQLPILHHAYLPSIGGVDASCVSPCVSPTASPRHRHVPPSFRVMVSGL
B1 came in with an FRET efficiency (baclofen 10^-6 M) of 51.2% and an FRET efficiency (baclofen 10^-6 M, fibulin-2 co-transfected) of 53%.
